Assay results from the DeepSol protein solubility set.

Assay: soluble on expression in E. coli; label from the status in PepcDB or PDB records

| Sequence | soluble on expression in E. coli |
| --- | --- |
| MGDNGTGIECIGLPPGFSIDYYAEGVEGARSMALSPEGTLFAGSRGAGKLYAMTDRNGDNKADDVLVIAEGLDMPNGVAFRNGSLYVAEISRVLRYDDIEARLENPPDPAVVRGDFPADRSHGWKYIKFGPDGKLYVPVGMPCNVCNLEEEEERYGTMMRMEPDGSQPEIFARGIRNTVGFAWNPETGELWFTDNGRDWLGDDLPPDELNRAPVPGMHFGFPYCHGKDTPDPEYGEFRNCSEFTAPEVELGPHVAALGMTFYNGSMFPEEYRNQIFIAEHGSWNRKIPIGYRVSLVRLENGTPVSYEPFADGWLQGLASWGRPVDVLVMPDGALLVSDDKNNAIYRISLEHHHHHH | not soluble |
| MFRWLFQSEGVTRSFDTPSETQSARDDRKTIGDYADNFLLFDLVMGEVEMAVIRFEIEKEEKEEAERKAERRPDYSWLISGNMNRARKQLSINEKNRIENACERLKPCEWSKTIDTWKIKTQNPSTRDQIIENFVIATHETIQSRKHEPTITEVLKNFATGRSGSLHTVSHGELPRVGSGRNISELSFIELQEMV | not soluble |
| MGLIKTIGRKPSVQWALSHLASGYLRLVRRTNRFTLEPADAYARLDAFGPFIAAMWHGQHIMISFMSRPQDRVATIISRSPDGNINTMALTRMGVRVMRASGARGRAVKDARAKGGAEGLRAMVKALKGGETVAFSADVPKVSRVCDAGIILLARFSGAPIVPVAVVTSRHIRFNSWDRACLGLPFGRGAMVFGEATFVPREVTPEEVDALRQRVQDELNRVHDRAYTLVGLEHHHHHH | soluble |
| MDRGVAQVASAPALGAGGRWFKSSRPDHFFIEVDKALLKEVKDMPIYRYVCEECGYETTVMHGINESPEVICEECGAKMKRTIGRVGIIFKGSGFYITDSRKSEKKKEAASASSEKKD | not soluble |
| MGSDKIHHHHHHMKSMWCIHDRIFLKKTREVFDVDIKAYKERVEKAVEYLKGQIDETPEIAIILGSGLSVIADEVEKEGTSKKIPYSEIPGFPISTAPGHKGELIFGKLFGKNVMLMNGRFHYYEGYSMKEVTFPIRVMQLLGVEILIVTNAAGGLNPDFEVGRPMIITDHINFMGDNPLIGPNVDEWGPRFPDMSEPYDKELIELAYNSARELGIPVYQGVYVAVTGPCFETPAELRMLRKFGADAVGMSTVPEVIVARHGQIRVLGISAITDRAVPEDLKPLTAEEVLEVAEKTGRKIAQIIFEVVRKL | not soluble |
| APFTLLYDLLHPYGFNRDQIREVATSLDNPPGASFFSSSHRLLRERDRLTVLPLSPKMEVPELFGLKIGDSFLDLPDGKQLSWQRGTPADLDLEGLRLPNTKLLLPLAFVESLQEELGVRRPQRGDHIHPYGMKGCKTVSRFFIDRHVPRSRREEAWLLCQGTEVVWIMGYAADRRFAIDELSDTEEYLLFSFGL | not soluble |
| MGSDKIHHHHHHMLVKKISPRGYCYGVVDAMKLAQQAALNDNLPRPIHILGMIVHNAHVTREFERMGVLTVDGPDRLEALETIKEGTVIFTAHGISPAVYARAAEKKLTVVDATCPDVTRTHDLIRSVVADDYEVIYVGKHGHPEPEGAVGVAPEHVHLIEKVEDIEALPAHLADKKIIVTNQTTMSQWDVQALMEHVRKKYPHVEVHNEICNATQVRQEAVAEQAGDCDLVIVVGDPRSNNSNRLAQVSFDIAATPAHRIGDLTELDLSWLDGVNQVGVTSGASTPTPITKKVIDFLQQYDPADISTHDKTPFLELRRILPKVKIL | not soluble |
| MRLTDQKRESIVQAAIAEFGDRGFEITSMDRIAARAEVSKRTVYNHFPSKEELFAEMLQRLWNCAPPQSEVVYRPLVSLREQLLELLWGKMRNLTDSSFLDLARVVVGATIHSPERAQVWLARINEREETFSAWIRAAQKDGRLKPVDPGFAATQMHALLKSFAFWPQVTFNAALLTPQEQSNVVESALNMFLGWYEIPG | soluble |
| MGQGANILGFGGDRSFNLAGNRAGFALGSNNGALVGGQRVGVDGGIGGGREGVEMGSQVQFGNEPNPGHPAGQFGSFMDNVKNFFSFLGRGMPMPPQQPPPSPPFSLGVTRPPTLIGTERSESENGGRHRPRPWFPEGEQIPEVTGEMRPKEGEAGISSSSSSSSETEFIGPNNGEIPRKSVEFSIDKEPREEFTEDLFTAQTSRPRELPGLIEFA | not soluble |
| MGSDKIHHHHHHMDAMKYNDLRDFLTLLEQQGELKRITLPVDPHLEITEIADRTLRAGGPALLFENPKGYSMPVLCNLFGTPKRVAMGMGQEDVSALREVGKLLAFLKEPEPPKGFRDLFDKLPQFKQVLNMPTKRLRGAPCQQKIVSGDDVDLNRIPIMTCWPEDAAPLITWGLTVTRGPHKERQNLGIYRQQLIGKNKLIMRWLSHRGGALDYQEWCAAHPGERFPVSVALGADPATILGAVTPVPDTLSEYAFAGLLRGTKTEVVKCISNDLEVPASAEIVLEGYIEQGETAPEGPYGDHTGYYNEVDSFPVFTVTHITQREDAIYHSTYTGRPPDEPAVLGVALNEVFVPILQKQFPEIVDFYLPPEGCSYRLAVVTIKKQYAGHAKRVMMGVWSFLRQFMYTKFVIVCDDDVNARDWNDVIWAITTRMDPARDTVLVENTPIDYLDFASPVSGLGSKMGLDATNKWPGETQREWGRPIKKDPDVVAHIDAIWDELAIFNNGKSA | not soluble |
| NEIVSGKLRIAASASFGAALLSQTLIEFRLQHPQVSVEVIFTEAPLDLIEAGFDIAFYFTDTPPEGYVGHQLRTLHCKPIAHRSYLADKPNVSTPEDLGDLEHILYKSRDLVLDKWTFTHKQTQQQCRIELESTLSFNLVQSMLDATLAGCGVAMLDEFALAKLESAQKEQLVSLLPDWQTDAILPLYLLYPKREHLPRRTRAFIDHFRNIYSVGE | not soluble |
| MSLETMNNKYKIMQLSDLHFGQDLGRCDDTNTSSGEHVDEFKCSSDLKTLKFIEKSIQEENPDLIVITGDLIDIHRSIDYKSIMLKSLQPILAHKIKFIYTFGDEIKDQLTKISIIQFLSTLPNCLNTVPQEVIEGITNYNFQIKQKSSTPSSSSSISVTVLDSEDHLIDDSQMTYLYRINNELLNDYKLLFFHYPLPQFRPKGKFKIVGSYNEKHELDRKTKLKFHDDIISCGYNVISVGHEHENDACLLSSSSSSSNSDKSIWLCYNSITGDSGITKLDKQYVRKMRLFEIDFEKNRILSWKRKEIDNQPFDYQLIYEKPQKEGHHHHHH | soluble |
| GAGTLIKDNLKRDLITSLPFEISLKIFNYLQFEDIINSLGVSQNWNKIIRKSTSLWKKLLISENFVSPKGFNSLNLKLSQKYPKLSQQDRLRLSFLENIFILKNWYNPKFVPQRTTLRGHMTSVITCLQFEDNYVITGADDKMIRVYDSINKKFLLQLSGHDGGVWALKYAHGGILVSGSTDRTVRVWDIKKGCCTHVFEGHNSTVRCLDIVEYKNIKYIVTGSRDNTLHVWKLPKESSVPDHGEEHDYPLVFHTPEENPYFVGVLRGHMASVRTVSGHGNIVVSGSYDNTLIVWDVAQMKCLYILSGHTDRIYSTIYDHERKRCISASMDTTIRIWDLENGELMYTLQGHTALVGLLRLSDKFLVSAAADGSIRGWDANDYSRKFSYHHTNLSAITTFYVSDNILVSGSENQFNIYNLRSGKLVHANILKDADQIWSVNFKGKTLVAAVEKDGQSFLEILDFS | soluble |
| MGSDKIHHHHHHMVNNMTDLTAQDAAWSTRDHLDDPVIGELRNRFGPDAFTVQATRTGIPVVWVKREQLLEVGDFLKKLPKPYVMLFDLHGMDERLRTHRDGLPAADFSVFYHLISIERNRDIMLKVALSENDLRVPTFTKLFPNANWYERETWEMFGIDIEGHPHLTRIMMPQTWEGHPLRKDYPARATEFDPFELTKAKQDLEMEALTFKPEDWGMKRGTDNEDFMFLNLGPNHPSAHGAFRIILQLDGEEIVDCVPDIGYHHRGAEKMGERQSWHSYIPYTDRIEYLGGCVNEMPYVLAVEKLAGITVPDRVNVIRVMLSELFRINSHLLYISTFIQDVGAMTPVFFAFTDRQKIYDLVEAITGFRMHPAWFRIGGVAHDLPRGWDRLLREFLEWMPKRLDSYEKAALRNTILKGRSQGVAAYGAKEALEWGTTGAGLRATGIDFDVRKWRPYSGYENFDFEVPVGGGVSDCYTRVMLKVEELRQSLRILQQCLDNMPEGPFKADHPLTTPPPKERTLQHIETLITHFLQVSWGPVMPAQESFQMVEATKGINSYYLTSDGSTMSYRTRVRTPSFAHLQQIPSAIRGSLVSDLIVYLGSIDFVMSDVDR | not soluble |
| MNEYAPLRLHVPEPTGRPGCQTDFSYLRLNDAGQARKPPVDVDAADTADLSYSLVRVLDEQGDAQGPWAEDIDPQILRQGMRAMLKTRIFDSRMVVAQRQKKMSFYMQSLGEEAIGSGQALALNRTDMCFPTYRQQSILMARDVSLVEMICQLLSNERDPLKGRQLPIMYSVREAGFFTISGNLATQFVQAVGWAMASAIKGDTKIASAWIGDGATAESDFHTALTFAHVYRAPVILNVVNNQWAISTFQAIAGGESTTFAGRGVGCGIASLRVDGNDFVAVYAASRWAAERARRGLGPSLIEWVTYRAGPHSTSDDPSKYRPADDWSHFPLGDPIARLKQHLIKIGHWSEEEHQATTAEFEAAVIAAQKEAEQYGTLANGHIPSAASMFEDVYKEMPDHLRRQRQELGV | soluble |
| MSTQLATSMEIIRKSLRKAAEDVLHINSKNAISNEVDSEEFKETLMKDAMKLMELETEGAQMQHIFEALHNDLKDGSDEVPNEKALEELYEKAKKTHKNVKGERQYFKDIIKSIRDESKNDENEMEVMQVQHSRKDPISKKDIVNPVISKNCGHVYDRDSIHEFAGKKRVIKCAMQGCSETINIGQLADYPDYWTNIKQQQ | not soluble |
| MGSDKIHHHHHHMFDPTLLHIINAHSRNPHYHKKFPIILFWSQKSGCTSLAKWFFYQIDLLQTALNYSPFIHNYEYDIYKNAPAYSLRLGIALREKQKETFKLVRNPYKRAVSSFVSLIAPPYIENPEWKPIRKFLYQDENSSKGLSFKQFLYYLLINGAQANSINPHFTQQYIADEEKYVTNYIYLENFNQDMKALEKRFELKTAPINEFSTSWHHQTPSMIYKGNFSESDITDPLFPRLPTFESFYDTECIQLVQTIFQNDFNTYKYSKEYPY | not soluble |
| MNKIIKYIGASAVVCMMAGCTTNFEDFNTNPYQPSKVPASNLLSTMFNVYACPQQNACQEINCMWASFSGQVTATANWSFGKNIFAYYNASEGHNDSSWGRLYGYIYPSFFLVENSTEKKGVIYAMAQLTRVYGMQLLASLQGPIPYTQMKAGETEAPYDNEQTVWHAMFDDLDNAITILKSAATFGVNQDLAVVDQFYKGDCSKWLKFANTLKLRMAIRISGVEPEYAQTKAQEAVLGGVMESVGDSSYDTTNGGINENGYAIVSGWPEVRANACLVSYMNGYNDPRRPAYFTPQTQTAAGGYVGVRSGSAEIPEPTVYANYSKLFIATDKTLPQPVMYAAEAAFLRAEGALKGWNMGGDAKTFYEKGVRLSFEEFGVSGADDYLADATSIPGNYVDNLIAGHTGNNYTNQSSITIKWEDGADDAKKLERVLTQKWIACYPDPMNGWADFRRTGYPRIFPATESMNADCNTGRGQRRLRFTRSEYNNNKANVEAAVSMLSNGKDSNGTDLWWAMKENGTY | not soluble |
| MGSDKIHHHHHHMQYTELVPGTLIRRYKRFLADVALASGDVVVAHCPNTGSMRAVDVPGCRVWLSPSRNPARKLAWTWELIELPMPDAPPALVSVHTGRANALVAQALQEARIPELAGYDTHKREVRVADARLDFRLSTAHAAAYVEVKQVTLREHDGHGYFPDSVSERGRRHLEALAARVAEGDRAVLLFCVAHTGIDAVAPAAHLDPAYAETLRRVAAQGVEVLAYGMSATWTHDGVPGDIALTRALPVSLERRLASATPLSD | not soluble |
